Assay results reported in patent publication US20250388666A1 (BRIGHAM AND WOMEN S HOSPITAL, published 2025).
Positions count from the first letter of the chain named. Numbers in names are those of the source. Blank lines part the entries; values can stand above or below the binder they belong to.

Biological target: T1, CEACAM1 (Sino Biological) (human, UniProt P13688 35-428, limits assumed)
T1 construct: may be the same as CEACAM1-HIS; also called hCEACAM1; biotinylated soluble CEACAM1
T1 sequence: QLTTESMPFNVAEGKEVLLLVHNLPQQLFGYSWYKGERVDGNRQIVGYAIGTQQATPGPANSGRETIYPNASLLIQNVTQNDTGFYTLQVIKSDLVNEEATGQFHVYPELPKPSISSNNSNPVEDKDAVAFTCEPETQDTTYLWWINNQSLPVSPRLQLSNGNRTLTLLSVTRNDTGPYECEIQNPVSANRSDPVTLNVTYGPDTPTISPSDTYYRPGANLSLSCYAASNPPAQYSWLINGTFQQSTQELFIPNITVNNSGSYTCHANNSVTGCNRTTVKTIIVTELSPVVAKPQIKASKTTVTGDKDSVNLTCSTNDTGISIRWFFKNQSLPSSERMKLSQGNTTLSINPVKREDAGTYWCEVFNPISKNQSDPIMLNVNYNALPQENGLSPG
Assay: SPR single-cycle
Description: To assess the binding of the humanized affinity matured IgGs, single cycle kinetics analysis was performed on crude supernatants using a Biacore T200 running Biacore T200 Control Software V2.0.1 and Biacore T200 Evaluation Software V3.0 (Uppsala, Sweden). Antibodies were diluted in HBS-P+ (GE Healthcare) to a final concentration of […]. At the start of each cycle, antibodies were loaded onto Fc2, Fc3 and Fc4 of the Protein A chip (GE Healthcare). IgGs were captured at a flow rate of 10 μl/min to give an immobilization level (RL) of ˜100 RU (a level calculated to obtain an Rmax of ˜50-150 RU once the analyte is bound). The surface was then allowed to stabilize. Single cycle kinetics data was obtained with CEACAM1 as the analyte at a flow rate of […] to minimize any potential mass transfer effects. Multiple repeats with the parent (VH2 N56Q/Vκ4 S27(f)A) antibody were performed to check the stability of the surface and analyte over the kinetic cycles. The signal from the reference channel Fc1 (no antibody) was subtracted from that of Fc2, Fc3 and Fc4 to correct for differences in non-specific binding to the reference surface. A three point, two-fold dilution range from 25 nM to 100 nM CEACAM 1 without regeneration between each concentration was used. The signal from each antibody blank run (no CEACAM1) was subtracted to correct for differences in surface stability. The association phase for the three injections of increasing concentrations of CEACAM1 was monitored for 200 seconds each time and a single dissociation phase was measured for 300 seconds following the last injection of CEACAM1. Regeneration of the Protein A surface was conducted using two injections of 10 mM glycine-HCL pH 1.5 followed by a stabilization period of 240 seconds.

B1: Parent VH/L16 (antibody, IgG4, V domains shown)
VH: EVQLLESGGGLVQPGGSLRLSCAASGFSFSDYYLYWVRQAPGKGLEWVATISVGGGQTSYADSVKGRFTISRDNSKNTLYLQMNSLRAEDTAMYYCTRGLYYGPAWFAYWGQGTLVTVSS
VL: DIVMTQSPDSLAVSLGERATINCKSSQSLLNSANQKNYLAWYQQKPGQPPKLLIYFASTRESGVPDRFSGSGSGTDFTLTISSLQAEDVAVYYCQSHYPYPFTFGGGTKVEIK
notes: IgG4 S241P, kappa
Kd: 61 nM
fold better than Parent (KD): 2.62 fold

B3: He1/Parent VL (antibody, IgG4, V domains shown)
VH: B1 VH with A105S
VL: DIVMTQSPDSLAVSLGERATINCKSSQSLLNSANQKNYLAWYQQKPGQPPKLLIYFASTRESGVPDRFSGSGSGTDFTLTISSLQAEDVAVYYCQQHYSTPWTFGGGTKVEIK
notes: IgG4 S241P, kappa
Kd: 544 nM
fold better than Parent (KD): 1.01 fold

B7: He3/Parent VL (antibody, IgG4, V domains shown)
VH: B1 VH with G99A, Y101T, F107L
VL: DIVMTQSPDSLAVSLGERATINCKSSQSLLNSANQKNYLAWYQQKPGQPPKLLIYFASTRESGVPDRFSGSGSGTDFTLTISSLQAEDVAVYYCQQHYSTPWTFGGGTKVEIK
notes: IgG4 S241P, kappa
Kd: 78 nM
fold better than Parent (KD): 2.03 fold

B9: He3/L16 (antibody, IgG4, V domains shown)
VH: B1 VH with G99A, Y101T, F107L
VL: B1 VL
notes: IgG4 S241P, kappa
Kd: 72 nM
fold better than Parent (KD): 2.22 fold

B10: He3/L1 (antibody, IgG4, V domains shown)
VH: B1 VH with G99A, Y101T, F107L
VL: B1 VL with Y100F, P101Y, F102Y
notes: IgG4 S241P, kappa
Kd: 62 nM
fold better than Parent (KD): 2.57 fold

B14: He3/L6 (antibody, IgG4, V domains shown)
VH: B1 VH with G99A, Y101T, F107L
VL: B1 VL with Y100F, P101S
notes: IgG4 S241P, kappa
Kd: 93 nM
fold better than Parent (KD): 1.72 fold

B16: He3/L18 (antibody, IgG4, V domains shown)
VH: B1 VH with G99A, Y101T, F107L
VL: B1 VL with Y98F
notes: IgG4 S241P, kappa
Kd: 82 nM
fold better than Parent (KD): 1.94 fold

B17: He1/L20 (antibody, IgG4, V domains shown)
VH: B1 VH with A105S
VL: B1 VL with Y98F, F102L
notes: IgG4 S241P, kappa
Kd: 264 nM
fold better than Parent (KD): 2.09 fold

B19: He1/L16 (antibody, IgG4, V domains shown)
VH: B1 VH with A105S
VL: B1 VL
notes: IgG4 S241P, kappa
Kd: 341 nM
fold better than Parent (KD): 1.62 fold

B20: He1/L18 (antibody, IgG4, V domains shown)
VH: B1 VH with A105S
VL: B1 VL with Y98F
notes: IgG4 S241P, kappa
Kd: 326 nM
fold better than Parent (KD): 1.69 fold

B21: He3/L4 #1 (antibody, IgG4, V domains shown)
VH: B1 VH with G99A, Y101T, F107L
VL: B1 VL with Y98F, P101Y, F102Y
notes: IgG4 S241P, kappa
Kd: 99 nM
fold better than Parent (KD): 1.61 fold

B23: He1/L17 (antibody, IgG4, V domains shown)
VH: B1 VH with A105S
VL: B1 VL with F102Y
notes: IgG4 S241P, kappa
Kd: 374 nM
fold better than Parent (KD): 1.47 fold

B24: He4/L1 (antibody, IgG4, V domains shown)
VH: B1 VH with G99A
VL: B1 VL with Y100F, P101Y, F102Y
notes: IgG4 S241P, kappa
Kd: 64 nM
fold better than Parent (KD): 2.49 fold

B26: He1/L4#2 (antibody, IgG4, V domains shown)
VH: B1 VH with A105S
VL: B1 VL with F102Y
notes: IgG4 S241P, kappa
Kd: 301 nM
fold better than Parent (KD): 1.83 fold

B28: He3/L19 (antibody, IgG4, V domains shown)
VH: B1 VH with G99A, Y101T, F107L
VL: B1 VL with Y98I, P99Y, Y100P, P101N
notes: IgG4 S241P, kappa
Kd: 135 nM
fold better than Parent (KD): 1.18 fold

B29: He3/L4#2 (antibody, IgG4, V domains shown)
VH: B1 VH with G99A, Y101T, F107L
VL: B1 VL with F102Y
notes: IgG4 S241P, kappa
Kd: 130 nM
fold better than Parent (KD): 4.24 fold

Now from value to binder:

Kd: 487 nM
fold better than Parent (KD): 1.13 fold
B2: He1/L2 (antibody, IgG4, V domains shown)
VH: B1 VH with A105S
VL: B1 VL with Y100F, F102Y
notes: IgG4 S241P, kappa

Kd: 163 nM
fold better than Parent (KD): 0.98 fold
B4: He3/L3 (antibody, IgG4, V domains shown)
VH: B1 VH with G99A, Y101T, F107L
VL: B1 VL with Y98F, Y100F
notes: IgG4 S241P, kappa

Kd: 307 nM
fold better than Parent (KD): 1.8 fold
B5: He1/L5 (antibody, IgG4, V domains shown)
VH: B1 VH with A105S
VL: B1 VL with Y100F, P101A
notes: IgG4 S241P, kappa

Kd: 263 nM
fold better than Parent (KD): 2.1 fold
B6: He1/L3 (antibody, IgG4, V domains shown)
VH: B1 VH with A105S
VL: B1 VL with Y98F, Y100F
notes: IgG4 S241P, kappa

Kd: 55 nM
fold better than Parent (KD): 2.87 fold
B8: He4/L3 (antibody, IgG4, V domains shown)
VH: B1 VH with G99A
VL: B1 VL with Y98F, Y100F
notes: IgG4 S241P, kappa

Kd: 568 nM
fold better than Parent (KD): 0.97 fold
B11: He1/L1 (antibody, IgG4, V domains shown)
VH: B1 VH with A105S
VL: B1 VL with Y100F, P101Y, F102Y
notes: IgG4 S241P, kappa

Kd: 95 nM
fold better than Parent (KD): 1.68 fold
B12: He3/L5 (antibody, IgG4, V domains shown)
VH: B1 VH with G99A, Y101T, F107L
VL: B1 VL with Y100F, P101A
notes: IgG4 S241P, kappa

Kd: 76 nM
fold better than Parent (KD): 2.09 fold
B13: He4/L2 (antibody, IgG4, V domains shown)
VH: B1 VH with G99A
VL: B1 VL with Y100F, F102Y
notes: IgG4 S241P, kappa

Kd: 429 nM
fold better than Parent (KD): 1.28 fold
B15: He1/L4 #1 (antibody, IgG4, V domains shown)
VH: B1 VH with A105S
VL: B1 VL with Y98F, P101Y, F102Y
notes: IgG4 S241P, kappa

Kd: 86 nM
fold better than Parent (KD): 1.85 fold
B18: He3/L2 (antibody, IgG4, V domains shown)
VH: B1 VH with G99A, Y101T, F107L
VL: B1 VL with Y100F, F102Y
notes: IgG4 S241P, kappa

Kd: 83 nM
fold better than Parent (KD): 1.91 fold
B22: He3/L17 (antibody, IgG4, V domains shown)
VH: B1 VH with G99A, Y101T, F107L
VL: B1 VL with F102Y
notes: IgG4 S241P, kappa

Kd: 996 nM
fold better than Parent (KD): 0.55 fold
B25: He1/L19 (antibody, IgG4, V domains shown)
VH: B1 VH with A105S
VL: B1 VL with Y98I, P99Y, Y100P, P101N
notes: IgG4 S241P, kappa

Kd: 402 nM
fold better than Parent (KD): 1.37 fold
B27: He1/L6 (antibody, IgG4, V domains shown)
VH: B1 VH with A105S
VL: B1 VL with Y100F, P101S
notes: IgG4 S241P, kappa
